Test results published in article PMC4850247.

Assays:
[1] = target: Full-length human OTUD2 (human) (UniProt Q5VVQ6); test: covalent labelling with an active site-directed probe (SDS-PAGE, fluorescence scan); 0.2 μM OTUD2 with 2 μM TAMRA-labeled mUb-PA or diUb-PA probes, time course, 30°C, 20 mM Tris-HCl pH 7.5, 150 mM NaCl; bands quantified and fitted by pseudo-first-order one-phase association, plateau forced to that of K11
[2] = target: OTUD3 (aa 52-209) (human) (UniProt Q5T2D3)
[3] = target: Full-length human OTUD2 (human) (UniProt Q5VVQ6)
[4] = target: Full-length human OTUD2 (human) (UniProt Q5VVQ6); test: covalent labelling with an active site-directed probe (SDS-PAGE, fluorescence scan); 0.1 μM OTUD2 constructs with 1 μM TAMRA-labeled K11-linked diUb-PA, time course up to 60 min, bands quantified
[5] = target: OTUD2 OTU (aa 147-314) (human) (UniProt Q5VVQ6); test: as above

Chain of UniProt Q5T2D3 (Q5T2D3 52-209): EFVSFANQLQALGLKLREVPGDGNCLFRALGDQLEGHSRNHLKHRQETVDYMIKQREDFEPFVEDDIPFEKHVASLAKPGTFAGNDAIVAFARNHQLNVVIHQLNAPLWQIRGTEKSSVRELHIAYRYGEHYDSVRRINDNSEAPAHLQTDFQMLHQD

Substance | t1/2 of covalent probe labelling [1] [min] | KM of AMC release from diUb-AMC (Michaelis-Menten, 15 nM OTUD3) [2] [µM] | KM of AMC release from diUb-AMC (Michaelis-Menten, 15 nM OTUD2, substrate up to 20 μM) [3] [µM] | further results
K33 triazole-linked diUb-AMC substrate (from UniProt P0CG48 1-76) |  |  | 100 | 
K27 triazole-linked diUb-AMC substrate (from UniProt P0CG48 1-76) |  | 4.7 |  | 
TAMRA-labeled K11 triazole-linked diUb-PA probe (from UniProt P0CG48 1-75; P0CG48 1-75) | 3.5 |  |  | t1/2 of covalent probe labelling [4]: 5.3 min; t1/2 of covalent probe labelling [5]: 6.8 min

Now from value to substance, other results behind:

t1/2 of covalent probe labelling [1] [min] | KM of AMC release from diUb-AMC (Michaelis-Menten, 15 nM OTUD3) [2] [µM] | KM of AMC release from diUb-AMC (Michaelis-Menten, 15 nM OTUD2, substrate up to 20 μM) [3] [µM] | Substance | further results
8.5 |  |  | TAMRA-labeled K33 triazole-linked diUb-PA probe (from UniProt P0CG48 1-75; P0CG48 1-75) | 
 | 3.7 | 20 | K11 triazole-linked diUb-AMC substrate (from UniProt P0CG48 1-76) | 
